Publication PMC3764190, “Type I-E CRISPR-Cas Systems Discriminate Target from Non-Target DNA through Base Pairing-Independent PAM Recognition”
Substitutions are numbered along the chain they refer to.

T1: Cascade (Type I-E crRNA-guided surveillance complex, crRNA-loaded) (Escherichia coli K12 (expressed in …, UniProt Q46901;P76632;Q46899;Q46898;Q46897 1-502;1-160;2-363;1-224;2-199))
T1 sequence 1: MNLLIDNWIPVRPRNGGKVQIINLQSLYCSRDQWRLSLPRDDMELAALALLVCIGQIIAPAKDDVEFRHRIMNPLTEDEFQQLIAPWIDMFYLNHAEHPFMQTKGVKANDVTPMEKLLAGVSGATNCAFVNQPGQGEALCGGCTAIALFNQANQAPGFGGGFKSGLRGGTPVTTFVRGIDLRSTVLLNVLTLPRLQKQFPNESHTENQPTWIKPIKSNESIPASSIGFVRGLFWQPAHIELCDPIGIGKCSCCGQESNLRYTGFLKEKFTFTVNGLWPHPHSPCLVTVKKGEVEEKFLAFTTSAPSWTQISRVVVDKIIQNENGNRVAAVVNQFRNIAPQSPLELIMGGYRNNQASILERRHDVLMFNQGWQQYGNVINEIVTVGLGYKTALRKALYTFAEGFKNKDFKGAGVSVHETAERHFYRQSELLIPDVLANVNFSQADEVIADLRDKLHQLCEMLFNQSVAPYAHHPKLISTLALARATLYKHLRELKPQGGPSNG
T1 sequence 2: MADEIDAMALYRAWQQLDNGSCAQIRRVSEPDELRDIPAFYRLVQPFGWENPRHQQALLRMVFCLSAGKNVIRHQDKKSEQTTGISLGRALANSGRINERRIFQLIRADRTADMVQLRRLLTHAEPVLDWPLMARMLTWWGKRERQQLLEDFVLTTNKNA
T1 sequence 3: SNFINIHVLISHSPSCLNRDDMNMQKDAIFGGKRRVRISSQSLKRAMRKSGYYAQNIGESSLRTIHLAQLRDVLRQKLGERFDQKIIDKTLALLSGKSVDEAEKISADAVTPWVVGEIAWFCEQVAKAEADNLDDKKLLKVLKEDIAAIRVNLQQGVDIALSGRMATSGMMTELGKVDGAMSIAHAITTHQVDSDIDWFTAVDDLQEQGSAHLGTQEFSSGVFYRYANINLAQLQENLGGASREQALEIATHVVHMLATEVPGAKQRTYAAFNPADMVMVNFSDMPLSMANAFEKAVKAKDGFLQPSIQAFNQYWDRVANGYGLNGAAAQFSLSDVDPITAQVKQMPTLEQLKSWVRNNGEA
T1 sequence 4: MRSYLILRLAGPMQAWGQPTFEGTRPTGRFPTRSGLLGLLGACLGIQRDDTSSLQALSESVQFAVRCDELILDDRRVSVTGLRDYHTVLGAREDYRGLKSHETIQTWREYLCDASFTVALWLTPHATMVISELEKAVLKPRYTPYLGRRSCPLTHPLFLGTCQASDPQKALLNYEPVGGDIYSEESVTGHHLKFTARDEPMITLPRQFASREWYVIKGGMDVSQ
T1 sequence 5: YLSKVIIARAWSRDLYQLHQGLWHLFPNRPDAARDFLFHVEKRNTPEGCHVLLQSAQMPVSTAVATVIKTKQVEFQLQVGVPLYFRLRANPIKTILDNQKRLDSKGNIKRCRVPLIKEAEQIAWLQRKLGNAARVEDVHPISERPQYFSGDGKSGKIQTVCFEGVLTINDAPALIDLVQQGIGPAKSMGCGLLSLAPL

B1: g8C-2A crRNA + CTT PAM probe (mixed)
RNA: AUAAACAGCUGUCUUUCGCUGCUGAGGGUGACGAUCCCGCGAGUUCCCCGCGCCAGCGGGG
DNA 1: TTAAAGGCCGCTTTTGCGGGATCGTCACCCTCAGCAGCGAAAGACAGCTTCGGAACGAGGGTAGC
DNA 2: GCTACCCTCGTTCCGAAGCTGTCTTTCGCTGCTGAGGGTGACGATCCCGCAAAAGCGGCCTTTAA
B2: WT g8 crRNA + CCT PAM (AGG) M13 probe (mixed)
RNA: B1 RNA with A7C
DNA 1: B1 DNA 1 with T49C
DNA 2: B1 DNA 2 with A17G
B3: WT g8 crRNA + CTT PAM (AAG) M13 probe (mixed)
RNA: B1 RNA with A7C
DNA 1: B1 DNA 1
DNA 2: B1 DNA 2
B4: g8G-1T crRNA + CAT PAM probe (mixed)
RNA: B1 RNA with A7C, G8U
DNA 1: B1 DNA 1 with T49A
DNA 2: B1 DNA 2 with A17T
B5: WT g8 crRNA + CTC PAM (GAG) M13 probe (mixed)
RNA: B1 RNA with A7C
DNA 1: B1 DNA 1 with T50C
DNA 2: B1 DNA 2 with A16G
B6: WT g8 crRNA + CAT PAM (ATG) M13 probe (mixed)
RNA: B1 RNA with A7C
DNA 1: B1 DNA 1 with T49A
DNA 2: B1 DNA 2 with A17T
B7: g8G-1T crRNA + CCT PAM probe (mixed)
RNA: B1 RNA with A7C, G8U
DNA 1: B1 DNA 1 with T49C
DNA 2: B1 DNA 2 with A17G
B8: g8G-1T crRNA + CTC PAM probe (mixed)
RNA: B1 RNA with A7C, G8U
DNA 1: B1 DNA 1 with T50C
DNA 2: B1 DNA 2 with A16G
B9: g8G-1T crRNA + CTT PAM probe (mixed)
RNA: B1 RNA with A7C, G8U
DNA 1: B1 DNA 1
DNA 2: B1 DNA 2

How the values were obtained:
[1] = biological target: T1, Cascade (Type I-E crRNA-guided …); experiment: EMSA; g8C-2A crRNA; slightly reduced affinity; EMSA with 32P-labelled dsDNA; buffer, salt, pH and temperature not stated (as in ref 29); Kd from fraction bound = [Cascade]/(Kd+[Cascade]); conditions: protein: recombinant; copies: 1;2;6;1;1; label: 5'-32P on DNA; guide / target / displaced; DNA blunt duplex
[2] = biological target: T1, Cascade (Type I-E crRNA-guided …); experiment: EMSA; WT crRNA; EMSA with 32P-labelled dsDNA; buffer, salt, pH and temperature not stated (as in ref 29); Kd from fraction bound = [Cascade]/(Kd+[Cascade]); conditions: protein: recombinant, copies: 1;2;6;1;1, label: 5'-32P on DNA, DNA blunt duplex
[3] = biological target: T1, Cascade (Type I-E crRNA-guided …); experiment: EMSA; g8G-1T crRNA; EMSA with 32P-labelled dsDNA; buffer, salt, pH and temperature not stated (as in ref 29); Kd from fraction bound = [Cascade]/(Kd+[Cascade]); conditions: protein: recombinant; copies: 1;2;6;1;1; label: 5'-32P on DNA; guide / target / displaced; DNA blunt duplex

Binder	binding result ([2]; guide / target / displaced)	binding result [3]	also measured
B1			Kd [1]: 60 ± 12 nM
B2	binds		
B3	binds		
B4		binds	
B5	binds		
B6			binding result ([2]; guide RNA / target strand / displaced strand): binds
B7		binds	
B8		binds	
B9		binds	
